Assay results: article PMC10616196, “A marine cryptochrome with an inverse photo-oligomerization mechanism” (Nature Communications, 2023)
Values belong to the molecule of their own block, whether it stands above or below them.

Legend:
PdLCry (L-CRY) [1] = target: T1, PdLCry (L-CRY) (Platynereis dumerilii, UniProt Z9ZPX6J9J5); assay: cryo-EM structure of the complex, […] A; format: binding; conditions: dark state, far-red light; pH 8.0; homodimer; near stoichiometric FAD occupancy; non-covalent
T1 construct: full length, N-terminal His6 tag, expressed in Sf9 insect cells (pCoofy27, baculovirus); 565 residues, model 31-556; homodimer in dark, monomer under blue light
T1 sequence (Z9ZPX6J9J5 1-565): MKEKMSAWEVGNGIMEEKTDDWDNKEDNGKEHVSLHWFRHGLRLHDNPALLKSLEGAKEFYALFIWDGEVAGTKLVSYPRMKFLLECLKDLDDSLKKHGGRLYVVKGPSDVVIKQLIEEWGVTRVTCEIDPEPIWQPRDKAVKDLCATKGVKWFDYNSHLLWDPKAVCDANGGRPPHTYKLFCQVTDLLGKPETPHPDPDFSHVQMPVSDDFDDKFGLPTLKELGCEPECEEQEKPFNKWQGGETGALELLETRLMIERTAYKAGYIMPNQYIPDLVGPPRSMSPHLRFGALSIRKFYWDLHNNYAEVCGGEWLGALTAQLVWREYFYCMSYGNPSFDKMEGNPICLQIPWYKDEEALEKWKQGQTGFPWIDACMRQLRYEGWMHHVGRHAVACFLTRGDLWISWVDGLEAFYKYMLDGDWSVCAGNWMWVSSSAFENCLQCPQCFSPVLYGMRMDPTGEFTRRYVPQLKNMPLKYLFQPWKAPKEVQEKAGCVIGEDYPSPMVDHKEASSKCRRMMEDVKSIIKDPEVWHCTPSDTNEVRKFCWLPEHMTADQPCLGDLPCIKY

PdLCry (L-CRY) [2] = target: T2, PdLCry (L-CRY) (Platynereis dumerilii, UniProt Z9ZPX6J9J5, Y352D); assay: UV/Vis spectroscopy of FAD photoreduction; format: binding; conditions: naturalistic sunlight, on ice; pH 8.0; co-purified FAD
T2 construct: full length, N-terminal His6 tag, expressed in Sf9 insect cells (pCoofy27, baculovirus); 565 residues, model 31-556; homodimer in dark, monomer under blue light
T2 sequence (Z9ZPX6J9J5 1-565 Y352D): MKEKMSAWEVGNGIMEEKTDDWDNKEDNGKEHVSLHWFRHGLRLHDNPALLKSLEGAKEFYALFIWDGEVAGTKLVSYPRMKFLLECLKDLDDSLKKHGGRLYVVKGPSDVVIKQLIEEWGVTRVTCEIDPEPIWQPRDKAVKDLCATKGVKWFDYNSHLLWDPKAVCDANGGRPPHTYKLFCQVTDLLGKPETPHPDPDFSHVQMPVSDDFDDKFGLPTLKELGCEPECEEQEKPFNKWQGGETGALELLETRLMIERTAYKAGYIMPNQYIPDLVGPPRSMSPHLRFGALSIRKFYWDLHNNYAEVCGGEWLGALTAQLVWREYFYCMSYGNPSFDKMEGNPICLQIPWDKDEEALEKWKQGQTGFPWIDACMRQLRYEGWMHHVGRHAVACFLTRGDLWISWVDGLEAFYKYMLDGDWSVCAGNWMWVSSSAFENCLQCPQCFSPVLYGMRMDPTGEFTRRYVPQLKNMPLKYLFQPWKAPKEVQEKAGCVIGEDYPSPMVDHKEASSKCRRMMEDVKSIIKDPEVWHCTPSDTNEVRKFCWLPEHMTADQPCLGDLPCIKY

PdLCry (L-CRY) [3] = target: T3, PdLCry (L-CRY) (Platynereis dumerilii, UniProt Z9ZPX6J9J5, Y352A); assay: UV/Vis spectroscopy of FAD photoreduction; format: binding; conditions: naturalistic sunlight, on ice; pH 8.0; co-purified FAD
T3 construct: full length, N-terminal His6 tag, expressed in Sf9 insect cells (pCoofy27, baculovirus); 565 residues, model 31-556; homodimer in dark, monomer under blue light
T3 sequence (Z9ZPX6J9J5 1-565 Y352A): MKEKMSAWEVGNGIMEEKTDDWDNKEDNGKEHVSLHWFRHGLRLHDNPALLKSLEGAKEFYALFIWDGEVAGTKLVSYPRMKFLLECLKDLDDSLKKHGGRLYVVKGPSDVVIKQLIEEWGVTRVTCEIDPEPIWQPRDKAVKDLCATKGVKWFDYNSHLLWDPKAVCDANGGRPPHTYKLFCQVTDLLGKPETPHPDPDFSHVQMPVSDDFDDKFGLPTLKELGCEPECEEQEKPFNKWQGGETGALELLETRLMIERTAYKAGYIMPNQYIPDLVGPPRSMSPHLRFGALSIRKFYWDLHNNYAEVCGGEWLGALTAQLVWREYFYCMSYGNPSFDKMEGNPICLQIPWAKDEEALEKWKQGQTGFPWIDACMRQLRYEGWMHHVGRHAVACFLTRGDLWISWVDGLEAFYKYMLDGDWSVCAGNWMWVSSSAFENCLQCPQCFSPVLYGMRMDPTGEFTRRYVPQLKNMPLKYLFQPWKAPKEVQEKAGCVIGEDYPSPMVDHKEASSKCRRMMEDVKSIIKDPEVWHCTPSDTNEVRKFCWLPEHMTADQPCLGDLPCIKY

[4] = target: Platynereis dumerilii L-CRY (PdLCry), wildtype (Platynereis dumerilii); assay: cryo-EM structure; dark state: vitrified under far-red light; 0.7 mg mL^-1 in 25 mM Bis-tris propane pH 8.0, 150 mM NaCl, 1 mM TCEP, 0.01% fluorinated octyl maltoside; 2D classification and C2 refinement
[5] = target: Platynereis dumerilii L-CRY (PdLCry), wildtype (Platynereis dumerilii); assay: cryo-EM structure; blue light state: grids illuminated for 30 s with a 455 nm LED, vitrified within less than 5 s; 0.7 mg mL^-1 in 25 mM Bis-tris propane pH 8.0, 150 mM NaCl, 1 mM TCEP; 2D classification, C1 map filtered to 8 Å
[6] = target: Platynereis dumerilii L-CRY (PdLCry), wildtype (Platynereis dumerilii); assay: SEC; analytical SEC with inline UV/Vis, Superdex 200 Increase 5/150 GL, far-red light (dark) conditions; 7 µL at 5 mg mL^-1; 25 mM Bis-tris propane pH 8.0, 150 mM NaCl, 1 mM TCEP
PdLCry^Y352A = target: T4, PdLCry^Y352A (Platynereis dumerilii); assay: SEC; final SEC step of the purification in dark or dim red light (Superdex S200 10/300 GL or HiLoad S200 16/60; 25 mM Bis-tris propane pH 8.0, 150 mM NaCl, 5% glycerol, 1 mM TCEP); conditions: both partners purified
T4 chain: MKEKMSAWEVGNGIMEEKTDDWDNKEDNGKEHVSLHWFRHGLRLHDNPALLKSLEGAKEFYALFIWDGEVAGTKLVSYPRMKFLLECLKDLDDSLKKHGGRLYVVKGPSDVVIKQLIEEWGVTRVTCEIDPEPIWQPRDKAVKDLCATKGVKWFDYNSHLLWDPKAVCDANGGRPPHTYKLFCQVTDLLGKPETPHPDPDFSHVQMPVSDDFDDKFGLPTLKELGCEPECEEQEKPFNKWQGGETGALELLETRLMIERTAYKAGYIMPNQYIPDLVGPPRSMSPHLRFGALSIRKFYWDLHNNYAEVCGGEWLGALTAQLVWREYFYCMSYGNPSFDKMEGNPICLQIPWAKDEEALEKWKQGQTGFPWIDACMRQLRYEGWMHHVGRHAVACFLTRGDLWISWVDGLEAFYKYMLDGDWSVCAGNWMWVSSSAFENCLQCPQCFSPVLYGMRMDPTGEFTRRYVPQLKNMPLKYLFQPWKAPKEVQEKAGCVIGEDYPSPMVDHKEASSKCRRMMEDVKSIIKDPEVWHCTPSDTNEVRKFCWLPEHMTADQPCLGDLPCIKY

PdLCry^Y352D = target: T5, PdLCry^Y352D (Platynereis dumerilii); assay: as above; conditions: both partners purified
T5 chain: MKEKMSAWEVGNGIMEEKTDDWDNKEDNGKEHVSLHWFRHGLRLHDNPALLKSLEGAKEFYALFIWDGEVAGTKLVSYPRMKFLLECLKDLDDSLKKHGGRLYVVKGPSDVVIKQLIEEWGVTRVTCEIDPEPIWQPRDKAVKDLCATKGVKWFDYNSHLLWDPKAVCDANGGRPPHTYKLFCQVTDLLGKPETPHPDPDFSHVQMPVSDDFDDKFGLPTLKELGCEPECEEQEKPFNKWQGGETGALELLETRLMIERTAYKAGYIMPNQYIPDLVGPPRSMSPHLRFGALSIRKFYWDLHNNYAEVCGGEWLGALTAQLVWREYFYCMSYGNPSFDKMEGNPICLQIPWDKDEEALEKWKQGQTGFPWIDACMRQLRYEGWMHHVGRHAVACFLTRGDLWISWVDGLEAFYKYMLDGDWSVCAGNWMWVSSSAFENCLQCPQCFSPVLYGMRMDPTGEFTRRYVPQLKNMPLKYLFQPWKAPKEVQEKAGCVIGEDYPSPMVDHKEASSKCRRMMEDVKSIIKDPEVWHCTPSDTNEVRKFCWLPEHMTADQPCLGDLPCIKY

Molecule: Cc1cc2nc3c(=O)[nH]c(=O)nc-3n(C[C@H](O)[C@H](O)[C@H](O)COP(=O)(O)OP(=O)(O)OC[C@H]3O[C@@H](n4cnc5c(N)ncnc54)[C@H](O)[C@@H]3O)c2cc1C [flavin adenine dinucleotide]
cryo-EM structure of the complex, 2.6 A (PdLCry (L-CRY) [1]): We observe a near stochiometric occupancy of the ligand FAD
UV/Vis spectroscopy of FAD photoreduction (PdLCry (L-CRY) [2]): both mutations lead to a less efficient FAD photoreduction under illumination conditions mimicking naturalistic sunlight
UV/Vis spectroscopy of FAD photoreduction (PdLCry (L-CRY) [3]): both mutations lead to a less efficient FAD photoreduction under illumination conditions mimicking naturalistic sunlight

percent of the protein present as a dimer [4]: 80%
stoichiometry N [4]: 2
percent of the protein monomeric [5]: > 90%
stoichiometry N [6]: 2
Molecule: Platynereis dumerilii L-CRY (PdLCry), wildtype (natural protein)

stoichiometry N (PdLCry^Y352A): 2
B1: PdLCry^Y352A (natural protein)
chain: MKEKMSAWEVGNGIMEEKTDDWDNKEDNGKEHVSLHWFRHGLRLHDNPALLKSLEGAKEFYALFIWDGEVAGTKLVSYPRMKFLLECLKDLDDSLKKHGGRLYVVKGPSDVVIKQLIEEWGVTRVTCEIDPEPIWQPRDKAVKDLCATKGVKWFDYNSHLLWDPKAVCDANGGRPPHTYKLFCQVTDLLGKPETPHPDPDFSHVQMPVSDDFDDKFGLPTLKELGCEPECEEQEKPFNKWQGGETGALELLETRLMIERTAYKAGYIMPNQYIPDLVGPPRSMSPHLRFGALSIRKFYWDLHNNYAEVCGGEWLGALTAQLVWREYFYCMSYGNPSFDKMEGNPICLQIPWAKDEEALEKWKQGQTGFPWIDACMRQLRYEGWMHHVGRHAVACFLTRGDLWISWVDGLEAFYKYMLDGDWSVCAGNWMWVSSSAFENCLQCPQCFSPVLYGMRMDPTGEFTRRYVPQLKNMPLKYLFQPWKAPKEVQEKAGCVIGEDYPSPMVDHKEASSKCRRMMEDVKSIIKDPEVWHCTPSDTNEVRKFCWLPEHMTADQPCLGDLPCIKY
modifications: FAD bound; dimer in dark / FAD bound; dimer in dark

stoichiometry N (PdLCry^Y352D): 2
B2: PdLCry^Y352D (natural protein)
chain: MKEKMSAWEVGNGIMEEKTDDWDNKEDNGKEHVSLHWFRHGLRLHDNPALLKSLEGAKEFYALFIWDGEVAGTKLVSYPRMKFLLECLKDLDDSLKKHGGRLYVVKGPSDVVIKQLIEEWGVTRVTCEIDPEPIWQPRDKAVKDLCATKGVKWFDYNSHLLWDPKAVCDANGGRPPHTYKLFCQVTDLLGKPETPHPDPDFSHVQMPVSDDFDDKFGLPTLKELGCEPECEEQEKPFNKWQGGETGALELLETRLMIERTAYKAGYIMPNQYIPDLVGPPRSMSPHLRFGALSIRKFYWDLHNNYAEVCGGEWLGALTAQLVWREYFYCMSYGNPSFDKMEGNPICLQIPWDKDEEALEKWKQGQTGFPWIDACMRQLRYEGWMHHVGRHAVACFLTRGDLWISWVDGLEAFYKYMLDGDWSVCAGNWMWVSSSAFENCLQCPQCFSPVLYGMRMDPTGEFTRRYVPQLKNMPLKYLFQPWKAPKEVQEKAGCVIGEDYPSPMVDHKEASSKCRRMMEDVKSIIKDPEVWHCTPSDTNEVRKFCWLPEHMTADQPCLGDLPCIKY
modifications: FAD bound; dimer in dark / FAD bound; dimer in dark
